Square brackets hold non-standard residues; d marks the D form. GABA = NCCCC(=O)O
Experiments:
Assay in all cases: positional peptide library pulldown on immobilised Nb, LC-MS of supernatant; signal ratio to control GFP-Nb (1 = not captured, near 0 = captured)
[1] = target: T1, BC2T V7E
T1 construct: positional scanning library member
T1 peptide: Ac-PDRKAAESHWQQ-NH2
Method in brief: (§1)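 Unbound peptide left in supernatant after 1 h pulldown in PBS/0.01% CHAPS measured by reversed-phase LC-MS (8–30% eluent B gradient, 20 min).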

[2] = target: T2, BC2T K4E
T2 construct: positional scanning library member
T2 peptide: Ac-PDREAAVSHWQQ-NH2
Method in brief: as §1

[3] = target: T3, BC2T A6R
T3 construct: positional scanning library member
T3 peptide: Ac-PDRKARVSHWQQ-NH2
Method in brief: as §1

[4] = target: T4, BC2T A5K
T4 construct: positional scanning library member
T4 peptide: Ac-PDRKKAVSHWQQ-NH2
Method in brief: as §1

[5] = target: T5, BC2T K4W
T5 construct: positional scanning library member
T5 peptide: Ac-PDRWAAVSHWQQ-NH2
Method in brief: as §1

[6] = target: T6, BC2T V7N
T6 construct: positional scanning library member
T6 peptide: Ac-PDRKAANSHWQQ-NH2
Method in brief: as §1

[7] = target: T7, BC2T K4P
T7 construct: positional scanning library member
T7 peptide: Ac-PDRPAAVSHWQQ-NH2
Method in brief: as §1

[8] = target: T8, BC2T V7S
T8 construct: positional scanning library member
T8 peptide: Ac-PDRKAASSHWQQ-NH2
Method in brief: as §1

[9] = target: T9, BC2T P1F
T9 construct: positional scanning library member
T9 peptide: Ac-FDRKAAVSHWQQ-NH2
Method in brief: as §1

[10] = target: T10, BC2T A6S
T10 construct: positional scanning library member
T10 peptide: Ac-PDRKASVSHWQQ-NH2
Method in brief: as §1

[11] = target: T11, BC2T A6N
T11 construct: positional scanning library member
T11 peptide: Ac-PDRKANVSHWQQ-NH2
Method in brief: as §1

[12] = target: T12, BC2T A5F
T12 construct: positional scanning library member
T12 peptide: Ac-PDRKFAVSHWQQ-NH2
Method in brief: as §1

[13] = target: T13, BC2T A6W
T13 construct: positional scanning library member
T13 peptide: Ac-PDRKAWVSHWQQ-NH2
Method in brief: as §1

[14] = target: T14, BC2T V7H
T14 construct: positional scanning library member
T14 peptide: Ac-PDRKAAHSHWQQ-NH2
Method in brief: as §1

[15] = target: T15, BC2T K4F
T15 construct: positional scanning library member
T15 peptide: Ac-PDRFAAVSHWQQ-NH2
Method in brief: as §1

[16] = target: T16, BC2T V7P
T16 construct: positional scanning library member
T16 peptide: Ac-PDRKAAPSHWQQ-NH2
Method in brief: as §1

[17] = target: T17, BC2T P1C(Abu) (SMILES …)
T17 construct: positional scanning library member
T17 peptide: Ac-[GABA]DRKAAVSHWQQ-NH2
Method in brief: as §1

[18] = target: T18, BC2T K4D
T18 construct: positional scanning library member
T18 peptide: Ac-PDRDAAVSHWQQ-NH2
Method in brief: as §1

[19] = target: T19, BC2T D2F
T19 construct: positional scanning library member
T19 peptide: Ac-PFRKAAVSHWQQ-NH2
Method in brief: as §1

[20] = target: T20, BC2T A6Q
T20 construct: positional scanning library member
T20 peptide: Ac-PDRKAQVSHWQQ-NH2
Method in brief: as §1

[21] = target: T21, BC2T K4Q
T21 construct: positional scanning library member
T21 peptide: Ac-PDRQAAVSHWQQ-NH2
Method in brief: as §1

[22] = target: T22, BC2T P1Q
T22 construct: positional scanning library member
T22 peptide: Ac-QDRKAAVSHWQQ-NH2
Method in brief: as §1

ratio [1]: 0.9
ratio [2]: 0.9
ratio [3]: 0.7
ratio [4]: 0
ratio [5]: 0.7
ratio [6]: 0.4
ratio [7]: 1
ratio [8]: 0.3
ratio [9]: 0.3
ratio [10]: 0.6
ratio [11]: 1
ratio [12]: 0.1
ratio [13]: 1
ratio [14]: 0.3
ratio [15]: 0.6
ratio [16]: 0.9
ratio [17]: 0.2
ratio [18]: 1
ratio [19]: 0.2
ratio [20]: 1
ratio [21]: 0.2
ratio [22]: 0.6
B1: BC2-NbR106E (VHH)
VHH: QVQLVESGGGLVQPGGSLTLSCTASGFTLDHYDIGWFRQAPGKEREGVSCINNSDDDTYYADSVKGRFTIFMDNAKDTVYLQMNSLKPEDTAIYYCAEARGCKRGEYEYDFWGQGTQVTVSS
notes: headlock mutant of BC2-Nb; immobilised on beads in this assay
